# Test: soluble on expression in E. coli; label from the status in PepcDB or PDB records
row,Sequence,soluble on expression in E. coli
1,MQSFLQLVAHDLYAKIGNDLSRTVLVFPNKRANLFFNEHLAGESDQPIWSPAAMSISDLFRKLSVQKAGDPIRLVCELYKVFREETESQETLDDFYFWGELLISDFDDVDKNLVDANKLFSNLQDLKNLMDDYEFLDKEQEEAIQQFFQNFSIERRTVLKEKFISLWDKLGTIYHRYRENLAELGIAYEGMLYRNVIEQLDTTRLKYDKYIFVGFNVLNKVETKFFQLLQDADKAMFYWDYDLFYTKQIVKHEAGEFINRNLKLFPNELPESCFDTLRKPKNIRYISASTENAQARFLPEWVQSTLSTANEEKENAVVLCNEALLLPVLHSIPQEVENVNITMGFPLAQTPVYSFINAAMELQTNGYRTATGRFTYETVSAILKHPYTRQLSINAEPLERELTKTNRFYPLPSELKMDDFLIKLFTPRSGIKELCDYLTELIKDISLLYREESEYNDIFNQLYRESLFKSYTTINRLYSLIETGELNVRTDTLRRLVSKVLTASNIPFHGEPAIGMQVMGVLETRNLDFRNIILLSLNEGQLPKSGGDSSFIPYNLRKAFGMTTIEHKNAVYAYYFYRLIQRAENITLLYNTSSNGLNRGEESRFMLQLLVEGPHKITREYLEAGQSPQGTTDISIEKTPEVFERLRCSYDCSNPQSYILSPSALNAYLDCRLKFYYRYVARLKAPDEVSAEIDSALFGTIFHLSAQLAYTDLTANRKIIQKEDLERLLRNEVKLQNYVDLAFKQELFKVPADEKPEYNGVQLINSKVIVSYLKQLLRNDLQYAPFEMVAMEKPVAEKITIQTGQGPITLRLGGTIDRMDAKDTTLRIVDYKTGGSPKTPANIEQLFTPSETRPNYIFQTFLYAAIMSRQQSLKVAPSLLYIHRAASESYSPVIEMGEPRQPKIPVNNFAFFEDEFRERLQRLLKEIFDENEPFTQTEDTKKCAYCDFKAICKR,not soluble
2,MQSLNVNGTLMTYSESGDPHAPTLFLLSGWCQDHRLFKNLAPLLARDFHVICPDWRGHDAKQTDSGDFDSQTLAQDLLAFIDAKGIRDFQMVSTSHGCWVNIDVCEQLGAARLPKTIIIDWLLQPHPGFWQQLAEGQHPTEYVAGRQSFFDEWAETTDNADVLNHLRNEMPWFHGEMWQRACREIEANYRTWGSPLDRMDSLPQKPEICHIYSQPLSQDYRQLQLEFAAGHSWFHPRHIPGRTHFPSLENPVAVAQAIREFLQA,soluble
3,MQTFVLATNSETVSQTLCSYLEGVLDLEDSVYAVNSQPGGDRTPPDAVADGKAALEVVSDRLGDQVSVETYQIIRGNSPADDIFDIAAEVDADELVIGVRKRSQTDRLIFGSVAQDIMRQSDYPMRVVPRD,not soluble
4,MQTQQERISTGVKGLDELIEGGLIPGRVYLITGPPGSGKTTFGMQFLLEGARRGEKVAYISLIHKPEEVVRDMVRFDPSVYVYVNNWRLILYDLGPILWRESTKVPTWRSVLSRIREITENEKITRLVIDPLTAIDFPLQDPVEKRVELAKFVRSLENLGVTTYLIAEMVELDKYSEEHYLVSGIIMLHYFMHEGRMIRAIQIFKMRGTKHDPNLKLLKFTDQGLVVYNKSPFEVV,soluble
5,MQTSIISAQSLSKLVSTNQEHLTILKQVNLSIQAGESVAIVGASGAGKSTLMTLLAGLDTPSEGEVYLLGKPLSQLDDEARAALRSESVGFVFQSFLLIPSLSALENVTLPCLLKGEAEDRERAQKLLKAVGLEHRMHHSPAQLSGGEQQRVAIARAFMISPQVLFADEPTGNLDQETAAKVIDLLFELNREHGTTLVLVTHDPKLAQRCQRRFFMQAGELEERV,not soluble
6,MQTYGGGWVLFQNRFDDSESYWDRKWDEYKNGFGDVDENSNFWLGNEALHVMTTNKKVTLRVEMYGDRTPNSKNATDFWFGHYFDFQVGSKTQNYPLLDLTMDWANPIGNASTAWYDLTCSIGSPFSTIDNIHDPVKECVTKFQMG,not soluble
7,MQVASRVKARRLEMNLTQEGIALRAGMKLPTYRRFERTGEISFRGLLQIGFALNALQDFALLFDQRLYQTLDEVLAEQQPKRKRGSKK,not soluble
8,MQVISPSSPAPRFAGKERFSEVYGELNDDFGSKLKISSKEEENRDDDSWWNQNGTDKDDEGREEDFSFASVNADNSPITADEAFEDGQIRPVYPLFNRNIFFDDPEEKTLRSPLKKLFVESTTTEEEEEESDTVGPYCSWTNRTVEQASPETCRKSNSTGFSKLWRFRDLVLRSNSDGKDAFVFLSNGSSSTSSTSSTAARLSGVVKSSEKGKEKTKTDKKKDKMRTKSAHEKLYMRNRAMREEGKRRSYLPYKHVGFFTNVNGLTRNVHPY,soluble
9,MQVNRLPFFTNHFFDTYLLISEDTPVGSSVTQLLARDMDNDPLVFGVSGEEASRFFAVEPDTGVVWLRQPLDRETKSEFTVEFSVSDHQGVITRKVNIQVGGVNDNAPTFHNQPYSVRIPENTPVGTPIFIVNATDPDLGAGGSVLYSFQPPSPFFAIDSARGIVTVIQELDYEVTQAYQLTVNATDQDKTRPLSTLANLAIIITDLEHHHHHH,soluble
10,MQVSDFHFELPDELIARYPKAERTASRLLQLDGNSGQLVDGTFKDVLELVEPGDLLVFNNTRVIPARMFGRKASGGKLEVLVERMLDEHTILAHVRSSKPPKPGTELYLGENDEFHAVMQARHDALFEIRFTAETVVLDILNQIGHMPLPPYIDRPDEEADKERYQTVYNQKPGAVAAPTAGLHFDQALLEQIQAKGVELAYVTLHVGAGTFQPVRVENIHDHHMHAEYVEVPQEVVDAITATKARGGRVVAVGTTSVRSLESAAQDALQKGTELKPFFGDTEIFIFPGYQYQLVDCLITNFHLPESTLIMLVSAFAGYEHTMAAYEHAVKEQYRFFSYGDAMFIRKQMTKA,not soluble
11,MQVSLPREDTVYIGGALWGPATTWNLYAPQSTWGTDQFMYLPAFQYDLGRDAWIPVIAERYEFVDDKTLRIYIRPEARWSDGVPITADDFVYALELTKELGIGPGGGWDTYIEYVKAVDTKVVEFKAKEENLNYFQFLSYSLGAQPMPKHVYERIRAQMNIKDWINDKPEEQVVSGPYKLYYYDPNIVVYQRVDDWWGKDIFGLPRPKYLAHVIYKDNPSASLAFERGDIDWNGLFIPSVWELWEKKGLPVGTWYKKEPYFIPDGVGFVYVNNTKPGLSDPAVRKAIAYAIPYNEMLKKAYFGYGSQAHPSMVIDLFEPYKQYIDYELAKKTFGTEDGRIPFDLDMANKILDEAGYKKGPDGVRVGPDGTKLGPYTISVPYGWTDWMMMCEMIAKNLRSIGIDVKTEFPDFSVWADRMTKGTFDLIISWSVGPSFDHPFNIYRFVLDKRLSKPVGEVTWAGDWERYDNDEVVELLDKAVSTLDPEVRKQAYFRIQQIIYRDMPSIPAFYTAHWYEYSTKYWINWPSEDNPAWFRPSPWHADAWPTLFIISKKSDPQPVPSWLGTVDEGGIEIPTAKIFEDLQKATMHHHHHH,soluble
12,MQVSVTGDFVGHIQELIRTEVLPYQWEALNDQIAGAEPSHCLDNFRAAAEKKGHIQFHGQPFQDSDIYKWIEAAAYTLAWHPDSDLEAKADQAIELICGAQQPDGYLNTYFILTGAQRWTHLLDGHELYCAGHLMEAAVAYYHATGKDKLLKAAQKLADHIADVFGTSPGKIPGYPGHPEVELALIRLFEATGNIKYQQLAQYFICQRGASPSIFRKEADQFGWDWADSPFQFQFYQAGKPILEQTELEGHAVRALYLCCGIADVAARTQDAALLETCRRLWEDLTQTKLYITGGAGSSVYGEAFTFAYDLPNDTAYAETCAAVAVCFFAQRMMKISPSGAYGDVLEQALYNGVLSGMALDGKSFFYVNPLEVVPEACQKDQRKKHVKPIRQKWFACACCPPNLARLFASIGGYLHFIRAETLYTNLYVTSTSEFTFQGLPIKLHMDSAYPFDEKIHISLSLPRPMEFSYAVRIPAWCADYHVLINGKICAGTLKDGFLYLHRCWRDGDEVELTLSMPVRVVRANSLVRENIGKSAICRGPIVYCMEQLEHHHHHH,not soluble
13,MQYDYLEALVKDLSLYKIKTEINMKNLRIWQTLSLWLVLLVTSLPLSAQTALLEKLGKIADITGTQPLESTEFVEKYVAYFTQPLDHRHPEKGSFSQRVIVSHVGFDRPTVMVTEGYGASYALGANYREELSKLFNTNMIFVEYRYFLESTPTPKDWQYLTAENSAEDLHAVREAFRSIYPGKWIATGISKGGQTAMLYRTFFPEDVDISVPYVAPLCYGVEDGRHEPFLKMVSTPEARKKIEDFQLEVLKRKPTLLPRFEKYCAGKKYKFRAPVEEIYDYSVLEYSFSIWQWGTPVDQIPAVTASDDELFKHLLAISEPSYFEEEGANTSFFVQAARELGYYGYDIRPFKKYLTIKTSKDYLKRLMLPEELGDMKFDKTLSRKIIHFLKNNDPKMIFIYGQNDPWTAAGVTWLKGKKNIHVFVEPNGSHLARIGTLPQKEKEEAIGLIKKWLEE,not soluble
14,MQYVAYAEGAKMASGAAKETSSNLFGIWDTWNSNPQMRKDHANELKKKSDEAYNNDMEELKKTRSAFDQEIAKRHAAADMQMSELVKSNNTELKTLQDQFNRDEASHGMAMKMMVREHAEKMKELRSEGREAQERAEREHRMKMSEAEEEHRKEKEIAQEKMDAAKREGSMKIALVEEEKQKIMKERSDELEKYTREMNEMAKNHQEERKKHNAIIGQKKMEMIGSKRDQLKIESEKILESMRNDINLLLAVEIKQNGSHLVEKLIDLFESVKTVKCLMDTVQTELTTIGDEVPEITPGQLSTFDDIKRHKTLFDNRVARFRKNVVTSSFTDAKLYEICMTTVSDFEKIMDKQDMKLVCHHLPKAVENQDFKKIKYYADMASKLNNQFSQEVQHLAAGFSNVSKTYAIDRSNQAAIQN,not soluble
15,MRAIRVHEVGGPEVLRLEELPVPEPGPGEVLVRLLAIGVNFIDTYKRKGLYPVPAPFTLGEEGAGVVEKVGEGVVGVRPGDRVAFANVQGAYAEYLVVPAERLVPVPEGLDPKLAAAALLQGMTVHYLLKSTYPVAPGDQVLVHAGAGGVGQLLIQWAKRLGATVYATASTEEKRGLCLQAGADYALPYEGFAEAVKALSGGGVDVVYDGVGKDTFLGSLAALRPRGMLVLFGQSSGPVPPQDPQILNRMGSLFLTRPTLHHYTASRKELLFRPGEVFRGVLKGWLKVRIGAEFPLENARKGPRGPRGPKDHGQGPPPALGRGNRAHFSGSGVVYYGPFQGLM,soluble
16,MRAKKRKFLQKEELSKLLQSLDMSQIGFGWFVMLVAKTGMRYAEALAITPADFDWTAQTISINKTWDYKYNKGFAKTKTLSSVRTIKIDWQIVGQFKPLIKDFPEDEPIFVEKFGDGTYKRQFNSTINNFLAVKCNETGITQISFHALRHTHASVLLAEGVSIHTISARLGHADVGVTQETYALEHHHHHH,soluble
17,MRALRRGKGITLKQLAKALNKNISRGEAKNTESQIGNWERGERNPNYLEVKKLADYFDVSIDYLVGRYNNDQVDLAKAMITSSKLTYNDTPLDNNDKYEILQLISGYLHARGRRSTGDLININHQESLDLFNNQNDF,not soluble
18,MRAPLSTYRRPQRTDFVTPTGGPFFAKQDKALNTIDLKMAHDLKLRGYRVKVAVVDEGVRSDHPLLNVEKKYGGDYMADGTRTYPDPKRQGRHGTSVALVLAGQDTDTYRGGVAPNADLYSANIGTRAGHVSDEAAFHAWNDLLGHGIKIFNNSFATEGPEGEQRVKEDRNEYHSAANKQNTYIGRLDRLVRDGALLIFAAGNGRPSGRAYSEVGSVGRTPRVEPHLQRGLIVVTAVDENGRLETWANRCGQAQQWCLAAPSTAYLPGLDKDNPDSIHVEQGTSLSAPLVTGAAVLVQDRFRWMDNDNLRTTLLTTAQDKGPYGVDPQYGWGVLDVGRAVQGPAQFAFGDFVARVTDTSTFGLEHHHHHH,not soluble
19,MRAPRWLWLVILLSGSAAADWREVLPNAQVVGGGELTLFGFRVYTARLLSPAKPFVADAPMALELTYHRNIDREDLVDASIDEIKRISGARVTTEQLAAWREQMNQSFVDVQPGMKITGVYLPGREARFYVGDKLQHVVPDSQFAKAFFSIWLDPKTRNPELREQLLGSTGS,not soluble
